The record followed here is publication PMC8729806, “Chaperones mainly suppress primary nucleation during formation of functional amyloid required for bacterial biofilm formation†” (Chemical Science, 2021).

The target in assay [1] is CsgA from E. coli (residues 21-151), without its signal sequence (E. coli) (UniProt P28307).
Assay [2] addresses Full-length FapC (residues 25-250) from Pseudomonas sp. UK4, without its signal sequence (Pseudomonas sp. UK4).
Assay [3] has as its target CsgA from E. coli (residues 21-151), without its signal sequence (E. coli, UniProt P28307 21-151). As to the kind of experiment: cell-based or functional assay.

Sequence of CsgA from E. coli (residues 21-151), without its signal sequence (E. coli) (P28307 21-151): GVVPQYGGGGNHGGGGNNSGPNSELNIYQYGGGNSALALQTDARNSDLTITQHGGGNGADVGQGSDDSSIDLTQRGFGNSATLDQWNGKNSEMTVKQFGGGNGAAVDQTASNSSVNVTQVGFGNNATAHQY
Sequence of Full-length FapC (residues 25-250) from Pseudomonas sp. UK4, without its signal sequence (Pseudomonas sp. UK4) (P0DXF5 25-250 limits assumed): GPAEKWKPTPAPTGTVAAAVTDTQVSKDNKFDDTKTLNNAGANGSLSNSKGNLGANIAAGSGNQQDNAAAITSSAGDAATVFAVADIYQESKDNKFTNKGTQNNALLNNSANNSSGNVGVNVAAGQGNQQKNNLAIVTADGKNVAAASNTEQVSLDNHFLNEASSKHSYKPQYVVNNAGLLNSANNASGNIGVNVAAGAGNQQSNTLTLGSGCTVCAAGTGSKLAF
Sequence of CsgA from E. coli (residues 21-151), without its signal sequence (P28307 21-151): as the sequence (P28307 21-151) above

In turn, “Bri2 BRICHOS monomer (M-Bri2) (domain or fragment)” displayed a fold reduction of the primary nucleation rate constant kn of spontaneous CsgA fibrillation (ThT kinetics, Amylofit), by 1 μM Bri2 monomer (fold reduction) in assay [1] of 1000. This molecule also had a fold reduction of the primary nucleation rate constant kn of spontaneous FapC fibrillation (ThT kinetics, Amylofit), by 6 μM Bri2 monomer (fold reduction) in assay [2] of 40.
With “Bri2 BRICHOS oligomer (O-Bri2) (from UniProt Q9Y287 137-231) (domain or fragment)”, the fold reduction of the primary nucleation rate constant kn of spontaneous CsgA fibrillation (ThT kinetics, Amylofit), by 1 μM Bri2 oligomer (fold reduction) in assay [1] turned out to be 100000. This molecule gave a fold reduction of the primary nucleation rate constant kn of spontaneous FapC fibrillation (ThT kinetics, Amylofit), by 6 μM Bri2 oligomer (fold reduction) in assay [2] of 10.
“DNAJB6 mutant F91L, used as pseudowildtype (from UniProt O75190 1-326) (natural protein)” had a fold reduction of the primary nucleation rate constant kn of spontaneous CsgA fibrillation (ThT kinetics, Amylofit), by 0.12 μM DNAJB6 (fold reduction) in assay [1] of 1e+07. This molecule also returned a fold reduction of the primary nucleation rate constant kn of spontaneous FapC fibrillation (ThT kinetics, Amylofit), by 0.6 μM DNAJB6 (fold reduction) in assay [2] of 1000.

B1: S100A9 (natural protein, human, UniProt P06702 1-114, looked up)
chain: MTCKMSQLERNIETIINTFHQYSVKLGHPDTLNQGEFKELVRKDLQNFLKKENKNEKVIEHIMEDLDTNADKQLSFEEFIMLMARLTWASHEKMHEGDEGPGHHHKPGLGEGTP
modifications: Alexa Fluor 546 label (peptide array only)
In assay [2], B1 gave a fold reduction of the primary nucleation rate constant kn of spontaneous FapC fibrillation (ThT kinetics, Amylofit), at 50 μM S100A9 (fold reduction) of 6. Moreover, in assay [3], the “fold reduction of the primary nucleation rate constant kn of spontaneous CsgA fibrillation (ThT kinetics, Amylofit), at 4 μM S100A9” value is 20 fold reduction.

B2: CsgC (natural protein, UniProt P52107 9-110, looked up)
chain: ALSSQITFNTTQQGDVYTIIPEVTLTQSCLCRVQILSLREGSSGQSQTKQEKTLSLPANQPIALTKLSLNISPDDRVKIVVTVSDGQSLHLSQQWPPSSEKS
modifications: Alexa Fluor 546 label (peptide array only)
Take B2: the “fold reduction of the primary nucleation rate constant kn of spontaneous CsgA fibrillation (ThT kinetics, Amylofit), by 1 μM CsgC” value in assay [3] is around 100000 fold reduction.
